Data published in paper PMC12102759 (2025).

B1: AMOTL2 peptide 66-81 (Angiomotin-like protein 2), 16-mer library wild type / TNKS ANK (TNKS 12 ANK repeats, residues 174-649) (parent complex)
chain 1: LQQATRQEPQGQEHQG
chain 2: TGVPAVSGALRELLEACRNGDVSRVKRLVDAANVNAKDMAGRKSSPLHFAAGFGRKDVVEHLLQMGANVHARDDGGLIPLHNACSFGHAEVVSLLLCQGADPNARDNWNYTPLHEAAIKGKIDVCIVLLQHGADPNIRNTDGKSALDLADPSAKAVLTGEYKKDELLEAARSGNEEKLMALLTPLNVNCHASDGRKSTPLHLAAGYNRVRIVQLLLQHGADVHAKDKGGLVPLHNACSYGHYEVTELLLKHGACVNAMDLWQFTPLHEAASKNRVEVCSLLLSHGADPTLVNCHGKSAVDMAPTPELRERLTYEFKGHSLLQAAREADLAKVKKTLALEIINFKQPQSHETALHCAVASLHPKRKQVTELLLRKGANVNEKNKDFMTPLHVAAERAHNDVMEVLHKHGAKMNALDTLGQTALHRAALAGHLQTCRLLLSYGSDPSIISLQGFTAAQMGNEAVQQILSESTPIRTSD

Variants of: B1
Assay: proteomic peptide phage display deep mutational scan (ProP-PD DMS): M13 P8 16-mer library selected against immobilised GST-tagged bait for four days (rounds), NGS of the eluted pools per day and pseudo-replica; bait immobilised on MaxiSorp plates (10 µg), library pre-cleared on GST, 2 h binding at 4 °C, five washes; one round per day, days 1-4; value from days 2 and 3

Point of comparison: chain 1 LQQATRQFPQGQEHQG [chain 1 E8F], screen value 0.00124 average fractional NGS count over selection days 2 and 3 (reads of this peptide / all reads for the bait, averaged over …. Against it:
- chain 1 VQQATRQEPQGQEHQG [chain 1 L1V] — higher, 0.00393 average fractional NGS count over selection days 2 and 3 (reads of this peptide / all reads for the bait, averaged over …
- chain 1 LQQNTRQEPQGQEHQG [chain 1 A4N] — lower, 0.000378 average fractional NGS count over selection days 2 and 3 (reads of this peptide / all reads for the bait, averaged over …
- chain 1 LQQATRHEPQGQEHQG [chain 1 Q7H] — higher, 0.00159 average fractional NGS count over selection days 2 and 3 (reads of this peptide / all reads for the bait, averaged over …
- chain 1 LDQATRQEPQGQEHQG [chain 1 Q2D] — lower, 0.000375 average fractional NGS count over selection days 2 and 3 (reads of this peptide / all reads for the bait, averaged over …
- chain 1 LQQATRQEPQGWEHQG [chain 1 Q12W] — lower, 0.000131 average fractional NGS count over selection days 2 and 3 (reads of this peptide / all reads for the bait, averaged over …
- chain 1 LQQATRQEPQGQESQG [chain 1 H14S] — lower, 0.000117 average fractional NGS count over selection days 2 and 3 (reads of this peptide / all reads for the bait, averaged over …
- chain 1 LQQATRQEPQGFEHQG [chain 1 Q12F] — lower, 0.000217 average fractional NGS count over selection days 2 and 3 (reads of this peptide / all reads for the bait, averaged over …
- chain 1 LGQATRQEPQGQEHQG [chain 1 Q2G] — lower, 0.00015 average fractional NGS count over selection days 2 and 3 (reads of this peptide / all reads for the bait, averaged over …
- chain 1 LQSATRQEPQGQEHQG [chain 1 Q3S] — lower, 0.000813 average fractional NGS count over selection days 2 and 3 (reads of this peptide / all reads for the bait, averaged over …
- chain 1 LQQAIRQEPQGQEHQG [chain 1 T5I] — lower, 0.000401 average fractional NGS count over selection days 2 and 3 (reads of this peptide / all reads for the bait, averaged over …
- chain 1 LQQATRQAPQGQEHQG [chain 1 E8A] — lower, 0.000174 average fractional NGS count over selection days 2 and 3 (reads of this peptide / all reads for the bait, averaged over …
- chain 1 LQWATRQEPQGQEHQG [chain 1 Q3W] — lower, 0.000779 average fractional NGS count over selection days 2 and 3 (reads of this peptide / all reads for the bait, averaged over …
- chain 1 MQQATRQEPQGQEHQG [chain 1 L1M] — lower, 0.000626 average fractional NGS count over selection days 2 and 3 (reads of this peptide / all reads for the bait, averaged over …
- chain 1 LQHATRQEPQGQEHQG [chain 1 Q3H] — higher, 0.00741 average fractional NGS count over selection days 2 and 3 (reads of this peptide / all reads for the bait, averaged over …
- chain 1 GQQATRQEPQGQEHQG [chain 1 L1G] — lower, 0.000254 average fractional NGS count over selection days 2 and 3 (reads of this peptide / all reads for the bait, averaged over …
- chain 1 LQQGTRQEPQGQEHQG [chain 1 A4G] — higher, 0.00149 average fractional NGS count over selection days 2 and 3 (reads of this peptide / all reads for the bait, averaged over …
- chain 1 LQQATRQEPQGQEHGG [chain 1 Q15G] — lower, 0.000723 average fractional NGS count over selection days 2 and 3 (reads of this peptide / all reads for the bait, averaged over …
- chain 1 LQQATRQEPQGYEHQG [chain 1 Q12Y] — lower, 0.000541 average fractional NGS count over selection days 2 and 3 (reads of this peptide / all reads for the bait, averaged over …
- chain 1 LQQATRQEPDGQEHQG [chain 1 Q10D] — lower, 0.00111 average fractional NGS count over selection days 2 and 3 (reads of this peptide / all reads for the bait, averaged over …
- chain 1 LQQAMRQEPQGQEHQG [chain 1 T5M] — lower, 0.000134 average fractional NGS count over selection days 2 and 3 (reads of this peptide / all reads for the bait, averaged over …
- chain 1 LQQATRQEPQGLEHQG [chain 1 Q12L] — lower, 0.000442 average fractional NGS count over selection days 2 and 3 (reads of this peptide / all reads for the bait, averaged over …
- chain 1 LQQATRQEPHGQEHQG [chain 1 Q10H] — lower, 0.000277 average fractional NGS count over selection days 2 and 3 (reads of this peptide / all reads for the bait, averaged over …
- chain 1 LQQATRQEPQGQEHPG [chain 1 Q15P] — lower, 0.000799 average fractional NGS count over selection days 2 and 3 (reads of this peptide / all reads for the bait, averaged over …
- chain 1 LQYATRQEPQGQEHQG [chain 1 Q3Y] — lower, 0.000305 average fractional NGS count over selection days 2 and 3 (reads of this peptide / all reads for the bait, averaged over …
- chain 1 LQQATRQEPQGQEWQG [chain 1 H14W] — lower, 0.00121 average fractional NGS count over selection days 2 and 3 (reads of this peptide / all reads for the bait, averaged over …
- chain 1 LQQATRQETQGQEHQG [chain 1 P9T] — lower, 0.000277 average fractional NGS count over selection days 2 and 3 (reads of this peptide / all reads for the bait, averaged over …
- chain 1 LQQHTRQEPQGQEHQG [chain 1 A4H] — lower, 0.000353 average fractional NGS count over selection days 2 and 3 (reads of this peptide / all reads for the bait, averaged over …
- chain 1 LHQATRQEPQGQEHQG [chain 1 Q2H] — higher, 0.00198 average fractional NGS count over selection days 2 and 3 (reads of this peptide / all reads for the bait, averaged over …
- chain 1 LSQATRQEPQGQEHQG [chain 1 Q2S] — lower, 0.00082 average fractional NGS count over selection days 2 and 3 (reads of this peptide / all reads for the bait, averaged over …
- chain 1 LQQATRQEPQGHEHQG [chain 1 Q12H] — lower, 0.00103 average fractional NGS count over selection days 2 and 3 (reads of this peptide / all reads for the bait, averaged over …
- chain 1 LQQATRQEPQGQEHEG [chain 1 Q15E] — lower, 0.000569 average fractional NGS count over selection days 2 and 3 (reads of this peptide / all reads for the bait, averaged over …
- chain 1 LQQATRQEPQGQEHMG [chain 1 Q15M] — lower, 0.00112 average fractional NGS count over selection days 2 and 3 (reads of this peptide / all reads for the bait, averaged over …
- chain 1 LQQATRQEPQGQEAQG [chain 1 H14A] — higher, 0.00145 average fractional NGS count over selection days 2 and 3 (reads of this peptide / all reads for the bait, averaged over …
- chain 1 LQQATRQEPQGQVHQG [chain 1 E13V] — higher, 0.00131 average fractional NGS count over selection days 2 and 3 (reads of this peptide / all reads for the bait, averaged over …
- chain 1 LQQATRQEPWGQEHQG [chain 1 Q10W] — lower, 0.000745 average fractional NGS count over selection days 2 and 3 (reads of this peptide / all reads for the bait, averaged over …
- chain 1 LQQATRQEPQGQIHQG [chain 1 E13I] — lower, 0.000226 average fractional NGS count over selection days 2 and 3 (reads of this peptide / all reads for the bait, averaged over …
- chain 1 LQQYTRQEPQGQEHQG [chain 1 A4Y] — higher, 0.00172 average fractional NGS count over selection days 2 and 3 (reads of this peptide / all reads for the bait, averaged over …
- chain 1 LQQMTRQEPQGQEHQG [chain 1 A4M] — lower, 0.00014 average fractional NGS count over selection days 2 and 3 (reads of this peptide / all reads for the bait, averaged over …
- chain 1 LQQATRQEPQGQELQG [chain 1 H14L] — lower, 0.000412 average fractional NGS count over selection days 2 and 3 (reads of this peptide / all reads for the bait, averaged over …
- chain 1 LQQATRQEPQGQMHQG [chain 1 E13M] — lower, 0.000514 average fractional NGS count over selection days 2 and 3 (reads of this peptide / all reads for the bait, averaged over …
- chain 1 LQQATRQQPQGQEHQG [chain 1 E8Q] — lower, 0.000434 average fractional NGS count over selection days 2 and 3 (reads of this peptide / all reads for the bait, averaged over …
- chain 1 PQQATRQEPQGQEHQG [chain 1 L1P] — lower, 0.000936 average fractional NGS count over selection days 2 and 3 (reads of this peptide / all reads for the bait, averaged over …
- chain 1 IQQATRQEPQGQEHQG [chain 1 L1I] — lower, 0.000531 average fractional NGS count over selection days 2 and 3 (reads of this peptide / all reads for the bait, averaged over …
- chain 1 LQQATRQEPQGQEEQG [chain 1 H14E] — lower, 0.000155 average fractional NGS count over selection days 2 and 3 (reads of this peptide / all reads for the bait, averaged over …
- chain 1 LQQATRQEPQGQEHTG [chain 1 Q15T] — lower, 0.000883 average fractional NGS count over selection days 2 and 3 (reads of this peptide / all reads for the bait, averaged over …
- chain 1 LAQATRQEPQGQEHQG [chain 1 Q2A] — lower, 0.000379 average fractional NGS count over selection days 2 and 3 (reads of this peptide / all reads for the bait, averaged over …
- chain 1 LQQATRQEPYGQEHQG [chain 1 Q10Y] — lower, 0.00045 average fractional NGS count over selection days 2 and 3 (reads of this peptide / all reads for the bait, averaged over …
- chain 1 HQQATRQEPQGQEHQG [chain 1 L1H] — higher, 0.00276 average fractional NGS count over selection days 2 and 3 (reads of this peptide / all reads for the bait, averaged over …
- chain 1 DQQATRQEPQGQEHQG [chain 1 L1D] — higher, 0.00194 average fractional NGS count over selection days 2 and 3 (reads of this peptide / all reads for the bait, averaged over …
- chain 1 LQVATRQEPQGQEHQG [chain 1 Q3V] — lower, 0.000386 average fractional NGS count over selection days 2 and 3 (reads of this peptide / all reads for the bait, averaged over …
- chain 1 LQQATRQEPQGQEFQG [chain 1 H14F] — higher, 0.00233 average fractional NGS count over selection days 2 and 3 (reads of this peptide / all reads for the bait, averaged over …
- chain 1 LQQATRQEPQGQQHQG [chain 1 E13Q] — lower, 0.000235 average fractional NGS count over selection days 2 and 3 (reads of this peptide / all reads for the bait, averaged over …
- chain 1 LQQATRQEPQGQSHQG [chain 1 E13S] — lower, 0.000101 average fractional NGS count over selection days 2 and 3 (reads of this peptide / all reads for the bait, averaged over …
- chain 1 LQQATRYEPQGQEHQG [chain 1 Q7Y] — lower, 0.000137 average fractional NGS count over selection days 2 and 3 (reads of this peptide / all reads for the bait, averaged over …
- chain 1 LQFATRQEPQGQEHQG [chain 1 Q3F] — lower, 0.000606 average fractional NGS count over selection days 2 and 3 (reads of this peptide / all reads for the bait, averaged over …
